From patent US10562947B2, “Compositions and methods for preventing or treating diseases, conditions or processes characterized by aberrant fibroblast proliferation and extracellular matrix deposition” (MOERAE MATRIX, INC., priority 2011, dated 2020)

Assays:
Experiment in all cases: Kinase Profiling Assay
Assay type in all cases: biochemical
Conditions in all cases: 100 μM peptide
EphA7(h) = EphA7(h) (Homo sapiens, UniProt Q15375)
Procedure, shortened: (§1)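 Read-out is kinase activity, measured twice per kinase, across 266 human kinases exposed to MK2 inhibitory peptides in a specificity screen.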

ULK2(h) = target: T1, ULK2(h) (Homo sapiens, UniProt Q8IYT8)
T1 sequence (Q8IYT8 1-1036): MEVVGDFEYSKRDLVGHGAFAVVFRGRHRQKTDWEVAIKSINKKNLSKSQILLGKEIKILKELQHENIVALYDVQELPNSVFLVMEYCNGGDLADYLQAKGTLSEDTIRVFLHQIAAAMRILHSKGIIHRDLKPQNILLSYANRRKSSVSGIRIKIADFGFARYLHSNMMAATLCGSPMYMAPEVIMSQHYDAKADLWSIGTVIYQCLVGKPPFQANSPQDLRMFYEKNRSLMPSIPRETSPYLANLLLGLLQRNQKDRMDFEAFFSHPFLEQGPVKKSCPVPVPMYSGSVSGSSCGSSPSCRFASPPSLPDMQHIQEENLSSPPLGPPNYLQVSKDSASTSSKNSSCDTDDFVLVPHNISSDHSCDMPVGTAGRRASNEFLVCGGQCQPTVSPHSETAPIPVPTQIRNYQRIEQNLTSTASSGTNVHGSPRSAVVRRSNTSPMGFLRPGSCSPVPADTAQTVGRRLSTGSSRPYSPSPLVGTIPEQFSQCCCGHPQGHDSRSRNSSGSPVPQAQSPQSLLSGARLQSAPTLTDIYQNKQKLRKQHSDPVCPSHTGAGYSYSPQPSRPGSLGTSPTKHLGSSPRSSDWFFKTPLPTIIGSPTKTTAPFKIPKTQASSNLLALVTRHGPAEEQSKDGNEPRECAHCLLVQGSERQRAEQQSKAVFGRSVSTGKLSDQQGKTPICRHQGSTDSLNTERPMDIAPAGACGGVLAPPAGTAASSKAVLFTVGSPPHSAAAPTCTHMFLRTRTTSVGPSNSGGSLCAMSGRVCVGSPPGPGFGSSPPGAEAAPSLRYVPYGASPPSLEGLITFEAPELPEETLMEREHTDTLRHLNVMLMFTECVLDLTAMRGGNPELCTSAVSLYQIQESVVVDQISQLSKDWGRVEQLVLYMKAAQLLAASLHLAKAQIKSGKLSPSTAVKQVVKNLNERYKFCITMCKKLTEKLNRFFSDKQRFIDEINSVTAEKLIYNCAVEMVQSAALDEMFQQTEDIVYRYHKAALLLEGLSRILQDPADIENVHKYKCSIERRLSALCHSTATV
Procedure, shortened: as §1

IGF-1R(h), activated = target: T2, IGF-1R(h), activated (Homo sapiens, UniProt P08069)
T2 construct: purchased Millipore
Procedure, shortened: as §1

PKCδ(h) = PKCδ(h) (Homo sapiens, UniProt Q05655)
Procedure, shortened: as §1

VRK2(h) = VRK2(h) (Homo sapiens, UniProt Q86Y07)
Procedure, shortened: as §1

PKBβ(h) = PKBβ(h) (Homo sapiens, UniProt P31751)
Procedure, shortened: as §1

TSSK2(h) = target: T3, TSSK2(h) (Homo sapiens, UniProt Q96PF2)
T3 sequence (Q96PF2 1-358): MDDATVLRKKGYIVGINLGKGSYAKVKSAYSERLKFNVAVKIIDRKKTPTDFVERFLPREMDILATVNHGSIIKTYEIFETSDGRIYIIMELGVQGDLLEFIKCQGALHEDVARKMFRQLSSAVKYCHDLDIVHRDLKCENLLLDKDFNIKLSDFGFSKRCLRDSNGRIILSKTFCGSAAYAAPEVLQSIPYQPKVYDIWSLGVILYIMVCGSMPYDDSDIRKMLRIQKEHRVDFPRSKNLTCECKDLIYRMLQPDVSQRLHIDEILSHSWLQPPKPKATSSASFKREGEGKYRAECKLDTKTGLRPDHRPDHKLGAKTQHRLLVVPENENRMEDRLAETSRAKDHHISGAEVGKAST
Procedure, shortened: as §1

MuSK(h) = target: T4, MuSK(h) (Homo sapiens, UniProt O15146)
T4 sequence (O15146 24-869): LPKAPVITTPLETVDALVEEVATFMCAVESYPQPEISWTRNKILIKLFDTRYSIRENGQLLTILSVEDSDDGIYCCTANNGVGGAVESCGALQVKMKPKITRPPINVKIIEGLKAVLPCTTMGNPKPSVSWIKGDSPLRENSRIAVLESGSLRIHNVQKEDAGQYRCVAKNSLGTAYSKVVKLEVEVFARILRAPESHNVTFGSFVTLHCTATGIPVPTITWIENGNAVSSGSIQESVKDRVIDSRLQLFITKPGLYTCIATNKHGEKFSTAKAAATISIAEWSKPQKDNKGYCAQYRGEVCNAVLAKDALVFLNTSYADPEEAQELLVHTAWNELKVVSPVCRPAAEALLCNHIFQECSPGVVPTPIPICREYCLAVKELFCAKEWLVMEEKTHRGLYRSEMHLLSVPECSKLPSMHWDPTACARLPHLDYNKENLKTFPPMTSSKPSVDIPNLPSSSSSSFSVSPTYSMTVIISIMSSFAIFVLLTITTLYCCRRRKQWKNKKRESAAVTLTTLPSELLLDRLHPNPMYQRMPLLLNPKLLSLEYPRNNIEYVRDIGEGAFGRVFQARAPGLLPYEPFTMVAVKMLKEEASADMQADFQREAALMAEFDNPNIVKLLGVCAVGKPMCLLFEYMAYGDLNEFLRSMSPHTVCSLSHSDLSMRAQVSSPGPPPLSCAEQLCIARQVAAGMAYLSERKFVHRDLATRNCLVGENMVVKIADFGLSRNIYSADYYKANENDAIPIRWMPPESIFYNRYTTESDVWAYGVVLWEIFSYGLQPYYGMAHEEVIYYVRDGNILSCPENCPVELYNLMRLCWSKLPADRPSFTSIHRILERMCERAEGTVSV
Procedure, shortened: as §1

CDK5/p35(h) = CDK5/p35(h) (Homo sapiens, UniProt Q00535)
Procedure, shortened: as §1

Hck(h) activated = target: T5, Hck(h) activated (Homo sapiens, UniProt P08631)
T5 construct: purchased Millipore
Procedure, shortened: as §1

Sequence of PKCδ(h) (Q05655 whole entry): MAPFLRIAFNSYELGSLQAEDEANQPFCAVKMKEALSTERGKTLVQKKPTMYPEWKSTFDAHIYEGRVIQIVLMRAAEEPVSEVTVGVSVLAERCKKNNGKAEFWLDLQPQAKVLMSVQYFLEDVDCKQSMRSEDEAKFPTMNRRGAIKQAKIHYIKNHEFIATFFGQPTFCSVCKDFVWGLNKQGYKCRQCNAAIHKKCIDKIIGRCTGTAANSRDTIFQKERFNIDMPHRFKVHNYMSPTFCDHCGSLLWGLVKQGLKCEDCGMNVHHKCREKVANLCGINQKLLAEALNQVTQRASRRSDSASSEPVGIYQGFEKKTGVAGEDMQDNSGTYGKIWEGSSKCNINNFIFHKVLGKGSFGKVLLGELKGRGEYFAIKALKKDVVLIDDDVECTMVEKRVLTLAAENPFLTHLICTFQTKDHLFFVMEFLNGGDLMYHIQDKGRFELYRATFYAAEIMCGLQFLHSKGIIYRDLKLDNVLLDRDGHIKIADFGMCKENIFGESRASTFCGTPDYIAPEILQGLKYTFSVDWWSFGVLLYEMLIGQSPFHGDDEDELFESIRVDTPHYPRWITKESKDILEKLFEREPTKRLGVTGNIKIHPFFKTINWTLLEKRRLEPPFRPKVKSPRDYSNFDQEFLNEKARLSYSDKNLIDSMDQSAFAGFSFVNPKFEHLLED
Sequence of CDK5/p35(h) (Q00535 whole entry): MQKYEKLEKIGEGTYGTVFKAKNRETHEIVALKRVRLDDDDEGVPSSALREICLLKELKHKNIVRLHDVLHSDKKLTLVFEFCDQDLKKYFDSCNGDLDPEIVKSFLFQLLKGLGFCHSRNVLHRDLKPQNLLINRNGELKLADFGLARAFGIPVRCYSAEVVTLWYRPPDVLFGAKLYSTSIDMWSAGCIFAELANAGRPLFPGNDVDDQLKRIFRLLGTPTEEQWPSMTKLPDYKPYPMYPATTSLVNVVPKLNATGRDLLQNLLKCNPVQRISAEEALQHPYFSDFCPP
Sequence of CDK5/p35(h) (Q15078 2-307 partner limits assumed): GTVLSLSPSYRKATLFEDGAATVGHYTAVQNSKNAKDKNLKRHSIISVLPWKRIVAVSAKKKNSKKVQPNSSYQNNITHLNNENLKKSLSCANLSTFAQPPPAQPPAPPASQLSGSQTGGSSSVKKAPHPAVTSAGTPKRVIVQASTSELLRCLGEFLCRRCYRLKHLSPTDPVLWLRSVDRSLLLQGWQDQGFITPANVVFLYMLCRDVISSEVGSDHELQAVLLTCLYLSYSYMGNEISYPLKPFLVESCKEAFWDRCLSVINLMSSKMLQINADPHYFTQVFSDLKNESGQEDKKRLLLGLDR
Sequence of VRK2(h) (Q86Y07 whole entry): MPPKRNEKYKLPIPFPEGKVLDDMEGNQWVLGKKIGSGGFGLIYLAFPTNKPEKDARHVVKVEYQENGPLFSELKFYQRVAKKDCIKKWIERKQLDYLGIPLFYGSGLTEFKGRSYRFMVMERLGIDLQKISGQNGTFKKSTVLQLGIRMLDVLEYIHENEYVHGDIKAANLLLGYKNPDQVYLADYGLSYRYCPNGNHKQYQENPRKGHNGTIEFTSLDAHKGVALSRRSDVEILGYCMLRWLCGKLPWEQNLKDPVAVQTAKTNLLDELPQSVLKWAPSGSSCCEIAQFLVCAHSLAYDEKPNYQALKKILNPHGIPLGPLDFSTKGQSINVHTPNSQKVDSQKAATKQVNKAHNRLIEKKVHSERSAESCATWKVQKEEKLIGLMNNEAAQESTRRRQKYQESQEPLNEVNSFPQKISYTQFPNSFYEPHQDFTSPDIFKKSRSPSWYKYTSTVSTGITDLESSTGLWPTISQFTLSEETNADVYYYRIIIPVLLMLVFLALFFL
Sequence of PKBβ(h) (P31751 whole entry): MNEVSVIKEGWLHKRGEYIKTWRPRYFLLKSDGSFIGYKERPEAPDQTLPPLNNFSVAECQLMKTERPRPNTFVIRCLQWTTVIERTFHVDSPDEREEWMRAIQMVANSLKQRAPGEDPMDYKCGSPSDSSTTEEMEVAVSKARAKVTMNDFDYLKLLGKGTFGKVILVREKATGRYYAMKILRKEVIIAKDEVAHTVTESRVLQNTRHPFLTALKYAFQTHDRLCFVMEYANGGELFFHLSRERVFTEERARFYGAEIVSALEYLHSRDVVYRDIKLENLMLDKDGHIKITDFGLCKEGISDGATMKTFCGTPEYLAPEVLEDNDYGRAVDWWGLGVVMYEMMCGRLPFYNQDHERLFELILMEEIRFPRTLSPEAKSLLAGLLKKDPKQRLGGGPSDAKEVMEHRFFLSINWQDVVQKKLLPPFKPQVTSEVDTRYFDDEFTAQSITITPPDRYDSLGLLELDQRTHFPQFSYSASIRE
T2 sequence (P08069 959-1367 limits assumed): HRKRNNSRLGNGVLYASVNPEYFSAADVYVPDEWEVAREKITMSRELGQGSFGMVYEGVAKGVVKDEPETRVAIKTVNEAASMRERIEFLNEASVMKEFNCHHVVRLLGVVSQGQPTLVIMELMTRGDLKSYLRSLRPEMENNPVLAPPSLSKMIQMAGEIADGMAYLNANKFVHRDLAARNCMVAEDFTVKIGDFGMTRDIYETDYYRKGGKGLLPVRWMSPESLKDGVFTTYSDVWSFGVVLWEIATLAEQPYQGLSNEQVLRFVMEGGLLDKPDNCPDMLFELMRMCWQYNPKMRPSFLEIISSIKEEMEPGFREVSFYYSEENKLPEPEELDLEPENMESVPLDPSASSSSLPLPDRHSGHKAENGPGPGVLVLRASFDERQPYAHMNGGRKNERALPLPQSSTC
Sequence of EphA7(h) (Q15375 28-998): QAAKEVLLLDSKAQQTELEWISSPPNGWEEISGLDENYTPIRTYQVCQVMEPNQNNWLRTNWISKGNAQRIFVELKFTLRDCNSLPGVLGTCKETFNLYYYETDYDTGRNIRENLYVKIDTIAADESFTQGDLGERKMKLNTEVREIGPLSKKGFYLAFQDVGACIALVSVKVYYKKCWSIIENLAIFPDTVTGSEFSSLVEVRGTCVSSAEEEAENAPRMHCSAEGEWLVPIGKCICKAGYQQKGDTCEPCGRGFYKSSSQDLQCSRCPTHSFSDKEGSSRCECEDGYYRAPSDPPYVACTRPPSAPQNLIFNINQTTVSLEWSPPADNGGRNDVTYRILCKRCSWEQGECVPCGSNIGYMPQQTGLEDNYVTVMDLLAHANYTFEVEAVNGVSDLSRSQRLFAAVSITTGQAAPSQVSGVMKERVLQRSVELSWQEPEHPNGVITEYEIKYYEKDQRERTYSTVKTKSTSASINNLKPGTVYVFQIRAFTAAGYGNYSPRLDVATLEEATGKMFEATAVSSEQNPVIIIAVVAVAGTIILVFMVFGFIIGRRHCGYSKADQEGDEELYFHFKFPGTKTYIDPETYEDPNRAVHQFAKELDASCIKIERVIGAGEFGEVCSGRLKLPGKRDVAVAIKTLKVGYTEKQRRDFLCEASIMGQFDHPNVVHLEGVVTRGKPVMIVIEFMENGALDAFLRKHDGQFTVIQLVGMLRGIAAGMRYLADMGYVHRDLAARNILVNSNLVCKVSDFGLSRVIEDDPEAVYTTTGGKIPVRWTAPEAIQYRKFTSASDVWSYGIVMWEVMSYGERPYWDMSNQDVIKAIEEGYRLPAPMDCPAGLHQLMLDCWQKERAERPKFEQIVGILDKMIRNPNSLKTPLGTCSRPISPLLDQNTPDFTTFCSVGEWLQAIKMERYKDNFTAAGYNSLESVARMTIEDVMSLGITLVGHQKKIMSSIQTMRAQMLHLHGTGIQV
T5 sequence (P08631 whole entry): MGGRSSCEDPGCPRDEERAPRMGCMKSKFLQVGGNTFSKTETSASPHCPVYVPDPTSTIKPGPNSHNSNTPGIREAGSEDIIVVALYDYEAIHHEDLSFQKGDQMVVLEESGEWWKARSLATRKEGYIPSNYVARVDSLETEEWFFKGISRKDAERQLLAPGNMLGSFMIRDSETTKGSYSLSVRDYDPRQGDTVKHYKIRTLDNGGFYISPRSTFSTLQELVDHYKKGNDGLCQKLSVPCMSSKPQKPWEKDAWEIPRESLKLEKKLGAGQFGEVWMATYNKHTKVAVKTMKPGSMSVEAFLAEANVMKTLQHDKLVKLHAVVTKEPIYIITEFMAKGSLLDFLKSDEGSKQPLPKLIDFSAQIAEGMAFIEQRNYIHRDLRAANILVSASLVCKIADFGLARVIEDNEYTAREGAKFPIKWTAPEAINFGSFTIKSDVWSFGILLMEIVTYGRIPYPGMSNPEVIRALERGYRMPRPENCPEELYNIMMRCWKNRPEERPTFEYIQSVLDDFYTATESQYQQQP

## FAKLAARLYRKALARQLGVAA [MMI-0300]
EphA7(h)
  EphA7(h) % activity: 159%
ULK2(h)
  ULK2(h) % activity: 122%
IGF-1R(h), activated
  IGF-1R(h), activated % activity: 80%
PKCδ(h)
  PKCδ(h) % activity: 101%
VRK2(h)
  VRK2(h) % activity: 161%
PKBβ(h)
  PKBβ(h) % activity: 84%
TSSK2(h)
  TSSK2(h) % activity: 98%
MuSK(h)
  MuSK(h) % activity: 93%
CDK5/p35(h)
  CDK5/p35(h) % activity: 79%
Hck(h) activated
  Hck(h) activated % activity: 82%

## KAFAKLAARLYRKALARQLGVAA [MMI-0400]
EphA7(h)
  EphA7(h) % activity: 222%
ULK2(h)
  ULK2(h) % activity: 131%
IGF-1R(h), activated
  IGF-1R(h), activated % activity: 77%
PKCδ(h)
  PKCδ(h) % activity: 90%
VRK2(h)
  VRK2(h) % activity: 185%
PKBβ(h)
  PKBβ(h) % activity: 98%
TSSK2(h)
  TSSK2(h) % activity: 94%
MuSK(h)
  MuSK(h) % activity: 93%
CDK5/p35(h)
  CDK5/p35(h) % activity: 76%
Hck(h) activated
  Hck(h) activated % activity: 81%

## YARAAARQARAKALNRQLGVA (Mammalian) [MMI-0200]
EphA7(h)
  EphA7(h) % activity: 220%
ULK2(h)
  ULK2(h) % activity: 132%
IGF-1R(h), activated
  IGF-1R(h), activated % activity: 94%
PKCδ(h)
  PKCδ(h) % activity: 101%
PKBβ(h)
  PKBβ(h) % activity: 250%
TSSK2(h)
  TSSK2(h) % activity: 91%
CDK5/p35(h)
  CDK5/p35(h) % activity: 92%
Hck(h) activated
  Hck(h) activated % activity: 100%

## HRRIKAWLKKIKALARQLGVAA (Mammalian) [MMI-0500]
EphA7(h)
  EphA7(h) % activity: 189%
ULK2(h)
  ULK2(h) % activity: 124%
IGF-1R(h), activated
  IGF-1R(h), activated % activity: 45%
PKCδ(h)
  PKCδ(h) % activity: 61%
VRK2(h)
  VRK2(h) % activity: 169%
PKBβ(h)
  PKBβ(h) % activity: 21%
TSSK2(h)
  TSSK2(h) % activity: 92%
MuSK(h)
  MuSK(h) % activity: 27%
CDK5/p35(h)
  CDK5/p35(h) % activity: 59%
Hck(h) activated
  Hck(h) activated % activity: 67%
